Data as given in patent CN115819596A.

Molecular target: 食蟹猴CEACAM6蛋白 (cynomolgus CEACAM6 protein) (cynomolgus monkey)
Assay: ELISA, plate-coated cynomolgus CEACAM6 protein

B1: UM05-L9 (antibody, human IgG1, kappa, V domains shown)
VH: QVQLQQSGPELVRPGVSVKISCKGSGYTFTDYAMHWVKQSHAKSLEWIGVISTYSGHTNYNQKFKGKAIMTVDKSSSTAYMDLARLTSEDSAIYYCVRGSTTAHYYTMDFWGQGTSVTVSS
VL: DIQMTQSPVSLSASVGETVTITCGASENIYGTLNWYQRKQGKSPQLLIYGATNLADGVSSRFSGSGSGRQYSLKISSLHPDDVATYYCQNVLSIPYTFGGGTKLEIKR
B1 showed an EC50 of 0.463 nM.
